{
  "source": "patent US20190030156A1",
  "molecular_target": "prefusion F hybrid: RSV F (S155C/S290C plus A102C/I148C) with transmembrane domain and cytoplasmic tail of hMPV F, on VLPs (human respiratory syncytial virus; human metapneumovirus) (UniProt P12568)",
  "test": "dot blot of VLPs, 5C4 signal normalized over Palivizumab, 3 independent experiments",
  "data": [
    {"substance": "5C4, a mouse monoclonal antibody (mAb) specific for the prefusion-only antigen site Φ", "values": [
      {"measurement": "fold recognition relative to postfusion F", "value": 19.2, "unit": "fold"}
    ]}
  ]
}
